In this assay the target is BLM (Bloom's syndrome helicase), purified recombinant (human, UniProt P54132 1-1417). Put plainly: far-Western, overlay or dot blot.

The text below walks through data of article PMC2532730 (Nucleic Acids Research, 2008).

BLM (Bloom's syndrome helicase), purified recombinant, sequence (P54132 whole entry): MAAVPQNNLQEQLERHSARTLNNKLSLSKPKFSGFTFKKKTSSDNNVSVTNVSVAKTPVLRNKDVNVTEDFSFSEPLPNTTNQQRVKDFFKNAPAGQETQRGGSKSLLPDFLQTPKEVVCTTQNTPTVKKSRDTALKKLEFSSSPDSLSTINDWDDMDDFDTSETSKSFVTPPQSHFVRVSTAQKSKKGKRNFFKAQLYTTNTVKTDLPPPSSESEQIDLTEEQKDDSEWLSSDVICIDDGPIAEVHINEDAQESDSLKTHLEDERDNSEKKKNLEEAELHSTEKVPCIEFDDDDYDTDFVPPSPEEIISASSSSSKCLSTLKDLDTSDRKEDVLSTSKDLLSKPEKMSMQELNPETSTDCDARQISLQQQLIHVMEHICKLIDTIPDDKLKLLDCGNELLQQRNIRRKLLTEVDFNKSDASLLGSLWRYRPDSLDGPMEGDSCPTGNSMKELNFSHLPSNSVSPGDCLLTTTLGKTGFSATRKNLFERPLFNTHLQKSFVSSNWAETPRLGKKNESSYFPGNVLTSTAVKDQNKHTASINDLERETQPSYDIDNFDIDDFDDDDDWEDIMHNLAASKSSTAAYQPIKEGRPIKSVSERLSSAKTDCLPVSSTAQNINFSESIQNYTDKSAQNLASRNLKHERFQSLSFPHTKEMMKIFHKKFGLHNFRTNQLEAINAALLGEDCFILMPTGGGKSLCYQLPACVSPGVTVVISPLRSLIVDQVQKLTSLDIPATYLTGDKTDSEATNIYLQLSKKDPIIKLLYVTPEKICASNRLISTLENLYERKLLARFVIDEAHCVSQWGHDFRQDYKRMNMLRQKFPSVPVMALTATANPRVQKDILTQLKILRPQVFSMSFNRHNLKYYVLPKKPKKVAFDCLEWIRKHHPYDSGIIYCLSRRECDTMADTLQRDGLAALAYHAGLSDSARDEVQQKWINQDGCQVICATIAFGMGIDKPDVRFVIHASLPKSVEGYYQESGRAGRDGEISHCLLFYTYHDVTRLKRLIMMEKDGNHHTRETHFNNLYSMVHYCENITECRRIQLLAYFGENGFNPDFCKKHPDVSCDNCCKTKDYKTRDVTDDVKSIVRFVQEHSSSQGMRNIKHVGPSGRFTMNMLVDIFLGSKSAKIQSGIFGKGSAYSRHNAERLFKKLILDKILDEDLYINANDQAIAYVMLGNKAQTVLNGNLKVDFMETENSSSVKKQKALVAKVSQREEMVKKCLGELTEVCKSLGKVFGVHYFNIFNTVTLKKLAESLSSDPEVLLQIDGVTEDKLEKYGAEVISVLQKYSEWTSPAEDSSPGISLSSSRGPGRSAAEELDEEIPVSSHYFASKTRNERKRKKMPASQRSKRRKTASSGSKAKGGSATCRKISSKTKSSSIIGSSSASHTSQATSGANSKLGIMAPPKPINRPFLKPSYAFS

B1: p12 subunit of the purified four-subunit hPOL δ enzyme (natural protein, human, UniProt Q9HCU8 1-107, looked up)
chain: MGRKRLITDSYPVVKRREGPAGHSKGELAPELGEEPQPRDEEEAELELLRQFDLAWQYGPCTGITRLQRWCRAKQMGLEPPPEVWQVLKTHPGDPRFQCSLWHLYPL
Consider B1, for which the binding result was “binds”.

B2: 6xHis-p12 protein (p12, smallest subunit of human DNA polymerase δ), purified recombinant (natural protein, UniProt Q9HCU8 1-107, looked up)
chain: MGRKRLITDSYPVVKRREGPAGHSKGELAPELGEEPQPRDEEEAELELLRQFDLAWQYGPCTGITRLQRWCRAKQMGLEPPPEVWQVLKTHPGDPRFQCSLWHLYPL
As for B2, the binding result was “binds”.
